For assay [1], the target named is Siglec-10-Fc (soluble, recombinant) (UniProt Q96LC7). Kind of assay: SPR. (In general: SPR reads the build-up and loss of mass on a sensor chip optically.)
The target of assay [2] is HMGB1, disulfide form (recombinant) (UniProt P09429). Kind of assay: SPR.
UniProt P09429, sequence (P09429 whole entry): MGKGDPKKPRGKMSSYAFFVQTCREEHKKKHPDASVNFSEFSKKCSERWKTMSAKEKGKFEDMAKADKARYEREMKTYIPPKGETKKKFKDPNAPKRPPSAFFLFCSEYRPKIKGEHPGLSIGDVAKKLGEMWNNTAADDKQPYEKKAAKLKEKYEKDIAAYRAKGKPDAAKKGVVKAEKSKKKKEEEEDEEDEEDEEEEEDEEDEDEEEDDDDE

UniProt Q96LC7, sequence (Q96LC7 17-550): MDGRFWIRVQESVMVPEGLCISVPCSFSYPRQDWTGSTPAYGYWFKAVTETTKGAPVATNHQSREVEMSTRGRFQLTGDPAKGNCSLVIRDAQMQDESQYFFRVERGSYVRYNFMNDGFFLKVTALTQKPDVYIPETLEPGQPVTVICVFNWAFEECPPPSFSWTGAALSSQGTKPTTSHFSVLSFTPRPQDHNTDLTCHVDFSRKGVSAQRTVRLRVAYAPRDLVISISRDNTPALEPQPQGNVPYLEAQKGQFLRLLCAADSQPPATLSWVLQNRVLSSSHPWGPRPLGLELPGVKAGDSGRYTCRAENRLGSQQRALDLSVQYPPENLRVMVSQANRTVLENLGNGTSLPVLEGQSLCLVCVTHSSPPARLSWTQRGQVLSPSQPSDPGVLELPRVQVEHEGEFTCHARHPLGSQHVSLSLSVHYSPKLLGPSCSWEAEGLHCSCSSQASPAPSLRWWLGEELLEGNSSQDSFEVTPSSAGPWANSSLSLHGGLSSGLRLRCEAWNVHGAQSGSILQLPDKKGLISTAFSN

The term Kd denotes the constant that tells how readily two partners part at equilibrium. Take “CD52-Fc (soluble CD52, recombinant) (from UniProt P31358 25-36) (Fc fusion)”: the results for the Kd in assay [1] and in assay [2] were 0.565 µM and 0.13 µM, respectively.

Source of the values: article PMC6065011.
